This test deals with T1, Ric-8AΔC492 (rat Ric-8A residues 1–492) (rat, UniProt Q80ZG1 1-492).
T1 construct: Ric-8A, rat, residues 1-492; The His tag is used to adsorb it to IMAC resin in the NMR experiment; also called ΔC492Ric-8A; source: E. coli BL21 (DE3)-RIPL, purified (nickel NTA-agarose, UNO-Q); not shown: His6, N-terminal, kept
T1 sequence (looked up): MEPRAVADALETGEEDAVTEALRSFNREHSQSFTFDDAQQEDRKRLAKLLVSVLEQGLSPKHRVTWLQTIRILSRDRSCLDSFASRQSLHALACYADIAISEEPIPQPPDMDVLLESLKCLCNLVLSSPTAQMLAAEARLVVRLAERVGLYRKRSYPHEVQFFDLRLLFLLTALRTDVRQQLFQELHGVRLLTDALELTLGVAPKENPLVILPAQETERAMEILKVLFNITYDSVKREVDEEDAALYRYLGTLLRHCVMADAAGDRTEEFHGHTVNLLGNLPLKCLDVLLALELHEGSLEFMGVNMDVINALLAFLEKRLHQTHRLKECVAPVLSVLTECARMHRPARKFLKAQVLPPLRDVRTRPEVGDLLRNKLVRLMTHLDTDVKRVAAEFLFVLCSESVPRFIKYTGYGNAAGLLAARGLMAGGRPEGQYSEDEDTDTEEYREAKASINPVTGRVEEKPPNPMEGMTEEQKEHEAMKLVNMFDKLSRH
Put plainly: ITC; 250 µM peptide injected into 25 µM Ric-8A in the cell, 25°C, single binding site model. The conditions noted are these: both partners purified.

No end group written: not given here.

B1: Gαi1C18, amidated peptide of the 18 C-terminal residues of rat Gαi1 (peptide)
peptide: DAVTDVIIKNNLKDCGLF-NH2
notes: Gαi1, rat, the C-terminal 18 residues; source: synthetic peptide (FMOC chemistry, HPLC purified)
For the molecule B1, the Kd stood at 12 µM, the dH was -22.2 kJ/mol and the “stoichiometry N” value was 0.9.

(Values after publication PMC3154933, “The Nucleotide Exchange Factor Ric-8A Is a Chaperone for the Conformationally Dynamic Nucleotide-Free State of Gαi1” (PLoS ONE, 2011).)
